# Measured values taken from publication PMC3988998, “Molecular Mechanism of Antibody-Mediated Activation of β-galactosidase” (Structure(London, England:1993), 2014).
# Molecular target: T1, Escherichia coli β-galactosidase (E. coli, UniProt P00722 = β-galactosidase)
# T1 construct: β-galactosidase of E. coli, encoded by lacZ; Wild-type commercial enzyme; source: bought: Sigma catalog no; G3153
# Assay: cryo-EM structure; β-gal mixed with scFv13R4 in a 1:10 stoichiometric ratio (2.5-fold excess), 1 hr on ice; single-particle cryo-EM, map at ~13 Å; rigid-body docking of β-gal (1F4A) and of the HyHEL-10 Fv (3A6B)
# Settings: both partners purified
# T1 sequence (P00722 whole entry): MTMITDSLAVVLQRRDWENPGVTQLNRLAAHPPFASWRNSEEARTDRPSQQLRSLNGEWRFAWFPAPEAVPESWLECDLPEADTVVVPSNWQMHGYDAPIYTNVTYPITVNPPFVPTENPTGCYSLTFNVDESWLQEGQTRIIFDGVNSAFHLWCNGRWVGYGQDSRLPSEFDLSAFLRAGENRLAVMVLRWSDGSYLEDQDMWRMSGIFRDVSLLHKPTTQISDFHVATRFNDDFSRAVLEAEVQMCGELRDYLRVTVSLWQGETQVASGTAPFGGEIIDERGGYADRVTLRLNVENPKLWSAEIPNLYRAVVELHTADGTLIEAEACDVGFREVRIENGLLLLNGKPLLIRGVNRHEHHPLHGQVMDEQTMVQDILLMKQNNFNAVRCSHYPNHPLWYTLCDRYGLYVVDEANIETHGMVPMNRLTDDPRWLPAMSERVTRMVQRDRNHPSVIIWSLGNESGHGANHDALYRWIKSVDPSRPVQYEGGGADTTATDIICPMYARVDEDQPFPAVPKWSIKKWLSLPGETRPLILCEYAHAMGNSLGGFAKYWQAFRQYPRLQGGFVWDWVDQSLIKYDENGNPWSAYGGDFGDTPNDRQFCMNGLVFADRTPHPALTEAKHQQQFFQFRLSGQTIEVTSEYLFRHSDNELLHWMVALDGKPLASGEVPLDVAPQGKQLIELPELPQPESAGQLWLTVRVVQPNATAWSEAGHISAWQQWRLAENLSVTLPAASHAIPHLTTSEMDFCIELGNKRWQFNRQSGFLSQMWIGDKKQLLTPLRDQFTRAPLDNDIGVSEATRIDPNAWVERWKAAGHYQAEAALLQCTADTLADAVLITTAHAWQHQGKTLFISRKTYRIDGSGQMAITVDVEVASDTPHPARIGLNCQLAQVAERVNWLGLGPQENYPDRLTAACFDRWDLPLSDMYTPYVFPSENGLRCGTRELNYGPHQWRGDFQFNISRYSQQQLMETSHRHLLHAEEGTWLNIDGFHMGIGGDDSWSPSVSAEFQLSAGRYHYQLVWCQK
binder,measurement,value
"scFv13R4 (scFv, V domains shown, model of the complex deposited as PDB 4CKD, built by docking the HyHEL-10 Fv of PDB 3A6B; 28 kDa single-chain Fv selected for cytoplasmic expression (Martineau et al., 1998); The preparation held GroEL as an impurity; also called Fv antibody; source: E. coli strain PM12 (BL21 (DE3) pLysS with a lacZ:Tn5 mutation), pET 16b, purified (nickel-nitrilotriacetic acid column)) VH: EVQLVESGGSLVKPGGSLRLSCAASGFTFSNYSMNWVRQAPGKGLEWISSISGSSRYIYYADFVKGRFTISRDNATNSLYLQMNSLRAEDTAVYYCVRSSITIFGGGMDVWGRGTLVTVSS VL: QSVLTQPASVSGSPGQSITISCAGTSSDVGGYNYVSWYQQHPGKAPKLMIYEDSKRPSGVSNRFSGSKSGNTASLTISGLQAEDEADYYCSSYTTRSTRVFGGGTKLAVL",stoichiometry N,1 Fv per β-gal subunit
